The source of these data is US20150104448A1 (TRUE NORTH THERAPEUTICS, published 2015).

The target of experiment [1] is T1, purified human activated C1s protein, two-chain form (Homo sapiens, UniProt P09871 16-688).
T1 construct: Also used here for C1s acting in human serum assays; also called human C1s; active C1s
T1 sequence: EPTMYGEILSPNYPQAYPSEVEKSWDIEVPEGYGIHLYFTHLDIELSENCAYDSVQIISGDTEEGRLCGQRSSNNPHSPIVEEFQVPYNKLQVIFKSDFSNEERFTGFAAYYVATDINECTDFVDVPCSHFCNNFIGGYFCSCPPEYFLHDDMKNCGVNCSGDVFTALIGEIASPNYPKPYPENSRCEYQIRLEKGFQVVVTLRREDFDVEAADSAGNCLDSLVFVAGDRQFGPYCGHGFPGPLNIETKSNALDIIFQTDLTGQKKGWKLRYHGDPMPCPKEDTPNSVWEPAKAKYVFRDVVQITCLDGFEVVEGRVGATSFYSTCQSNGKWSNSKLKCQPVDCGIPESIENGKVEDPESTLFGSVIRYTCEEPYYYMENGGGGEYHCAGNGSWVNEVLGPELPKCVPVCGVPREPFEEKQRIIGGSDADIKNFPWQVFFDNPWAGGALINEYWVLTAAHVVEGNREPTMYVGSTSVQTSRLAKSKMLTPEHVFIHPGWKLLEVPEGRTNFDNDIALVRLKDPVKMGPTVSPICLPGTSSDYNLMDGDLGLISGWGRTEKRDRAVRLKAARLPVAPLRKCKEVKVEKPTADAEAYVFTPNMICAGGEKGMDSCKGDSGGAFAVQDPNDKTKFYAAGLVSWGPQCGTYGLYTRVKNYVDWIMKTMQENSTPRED
The experiment is described as follows: competition ELISA, plate-coated human C1s; competitor biotin-labeled M81 at 0.5E-9 M; competition with biotin-labeled M81 (0.5E-9 M), plate-coated native human C1s. The procedure: To determine if IPN003 could compete binding of M81 to human C1s, competition assays were performed, in which biotin-labeled M81 (final concentration 0.5E-9 M) was incubated with increasing concentrations of unlabeled antibodies in wells coated with human C1s.

For experiment [2], the target named is T2, purified rat C1s (rat, UniProt Q6P6T1 16-688, limits assumed).
T2 construct: also called rat complement C1s protein
T2 sequence (looked up): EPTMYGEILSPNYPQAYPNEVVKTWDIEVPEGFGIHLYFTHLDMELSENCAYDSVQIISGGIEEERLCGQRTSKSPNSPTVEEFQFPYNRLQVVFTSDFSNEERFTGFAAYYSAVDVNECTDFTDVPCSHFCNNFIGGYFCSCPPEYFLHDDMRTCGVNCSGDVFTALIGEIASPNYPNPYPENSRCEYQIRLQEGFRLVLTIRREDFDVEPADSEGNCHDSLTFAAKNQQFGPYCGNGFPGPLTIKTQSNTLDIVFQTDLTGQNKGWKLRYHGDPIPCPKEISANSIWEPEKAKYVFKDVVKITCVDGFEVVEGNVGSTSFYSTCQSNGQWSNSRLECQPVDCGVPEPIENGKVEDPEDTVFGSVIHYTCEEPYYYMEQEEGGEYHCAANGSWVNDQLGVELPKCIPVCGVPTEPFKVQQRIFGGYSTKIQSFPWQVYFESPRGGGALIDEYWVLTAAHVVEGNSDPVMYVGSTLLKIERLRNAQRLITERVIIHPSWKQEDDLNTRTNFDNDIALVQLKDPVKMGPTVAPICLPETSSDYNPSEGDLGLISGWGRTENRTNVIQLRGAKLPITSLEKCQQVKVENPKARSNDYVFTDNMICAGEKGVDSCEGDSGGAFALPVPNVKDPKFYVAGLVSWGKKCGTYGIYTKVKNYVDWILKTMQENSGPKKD
In words: ELISA, purified rat C1s immobilized on micro-titer plates, increasing dilutions of antibody. The procedure:
ELISA assays were performed with purified rat C1s immobilized on micro-titer plates and increasing dilutions of IPN003 or M81.
A general note: ELISA stands for enzyme-linked immunosorbent assay.

Experiment [3] concerns the target T3, Inactive-C1s (Homo sapiens, UniProt P09871).
T3 construct: proenzyme (pro-C1s); also called pro-C1s
T3 sequence (single chain, looked up): T1 sequence
The experiment is described as follows: kinetic binding measurement, method not stated; Table 4, Inactive-C1s.

The target in experiment [4] is T1, purified human activated C1s protein, …. In words: kinetic binding measurement, method not stated; Table 4, Active-C1s.
Experiment [5] shares this target. The experiment is described as follows: ELISA, target proteins immobilized on micro-titer plates. The procedure: (§1) To determine whether IPN003 could bind other components of the complement cascade, ELISA assays were performed with target proteins immobilized on micro-titer plates.
Experiment [6] concerns the target T4, C1r.
T4 construct: member of group m5; also called complement C1r
T4 chain: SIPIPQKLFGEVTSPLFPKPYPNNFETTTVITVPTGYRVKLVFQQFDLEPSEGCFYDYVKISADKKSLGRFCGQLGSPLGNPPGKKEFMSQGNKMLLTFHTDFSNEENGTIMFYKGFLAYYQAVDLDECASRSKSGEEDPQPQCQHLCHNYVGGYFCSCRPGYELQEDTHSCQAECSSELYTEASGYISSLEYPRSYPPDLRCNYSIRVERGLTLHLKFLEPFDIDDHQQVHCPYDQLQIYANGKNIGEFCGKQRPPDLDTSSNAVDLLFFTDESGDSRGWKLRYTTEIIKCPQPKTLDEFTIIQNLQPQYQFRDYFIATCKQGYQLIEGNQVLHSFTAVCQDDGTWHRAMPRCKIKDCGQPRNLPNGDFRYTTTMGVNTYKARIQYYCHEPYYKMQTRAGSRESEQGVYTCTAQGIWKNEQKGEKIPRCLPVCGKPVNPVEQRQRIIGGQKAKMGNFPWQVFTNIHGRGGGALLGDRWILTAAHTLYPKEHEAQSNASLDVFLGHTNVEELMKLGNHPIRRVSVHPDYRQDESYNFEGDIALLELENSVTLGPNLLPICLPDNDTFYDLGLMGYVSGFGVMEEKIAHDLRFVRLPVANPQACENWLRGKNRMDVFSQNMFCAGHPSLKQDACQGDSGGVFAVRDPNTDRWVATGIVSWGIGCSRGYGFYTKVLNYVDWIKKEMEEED
The description is as above. The method, then: as §1

Experiment [7] concerns the target T5, C2.
T5 construct: member of group m5; also called complement C2
T5 chain: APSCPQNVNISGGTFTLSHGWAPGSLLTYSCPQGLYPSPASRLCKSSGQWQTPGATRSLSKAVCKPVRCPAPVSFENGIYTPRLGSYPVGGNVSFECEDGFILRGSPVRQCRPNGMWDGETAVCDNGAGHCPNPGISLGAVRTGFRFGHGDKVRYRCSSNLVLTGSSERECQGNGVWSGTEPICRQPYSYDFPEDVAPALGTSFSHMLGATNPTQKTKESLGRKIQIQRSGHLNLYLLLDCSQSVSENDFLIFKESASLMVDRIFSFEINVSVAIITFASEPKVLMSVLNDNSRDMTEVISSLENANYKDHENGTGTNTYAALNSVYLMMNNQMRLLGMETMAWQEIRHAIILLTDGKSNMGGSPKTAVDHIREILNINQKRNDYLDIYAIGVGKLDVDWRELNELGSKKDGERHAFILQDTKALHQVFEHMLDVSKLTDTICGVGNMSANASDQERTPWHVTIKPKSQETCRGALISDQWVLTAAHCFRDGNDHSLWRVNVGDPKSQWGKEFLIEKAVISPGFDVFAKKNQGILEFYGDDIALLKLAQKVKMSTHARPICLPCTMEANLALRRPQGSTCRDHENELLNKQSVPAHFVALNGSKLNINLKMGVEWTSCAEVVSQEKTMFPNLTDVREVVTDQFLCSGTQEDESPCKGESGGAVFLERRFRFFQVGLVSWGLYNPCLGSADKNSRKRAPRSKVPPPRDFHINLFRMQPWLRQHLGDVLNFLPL
The description is as above. The method, then: as §1

Experiment [8] concerns the target T1, purified human activated C1s protein, …. The experiment is described as follows: kinetic binding measurement, method not stated; lower end of the printed KD range, native human C1s.
The target is the same in experiment [9]. In words: kinetic binding measurement, method not stated; kinetic measurement, native human C1s.

B1: Anti-C1s monoclonal antibody IPN003 (antibody, V domains shown)
VH: EVMLVESGGALVKPGGSLKLSCAASGFTFSNYAMSWVRQIPEKRLEWVATISSGGSHTYYLDSVKGRFTISRDNARDTLYLQMSSLRSEDTALYYCARLFTGYAMDYWGQGTSVTVSS
VL: QIVLTQSPAIMSASLGERVTMTCTASSSVSSSYLHWYQQKPGSSPKLWIYSTSNLASGVPARFSGSGSGTFYSLTISSMEAEDDATYYCHQYYRLPPITFGAGTKLELK
notes: Mouse monoclonal antibody from an NZBW hybridoma; Biotin-labeled in some assays; also called IPN-M34; M34
Take B1: the IC50 – broadly, the point on the concentration scale where inhibition reaches its midpoint – in [1] stood at 330 pM. The dissociation constant Kd (as a rule, the free concentration of one partner at which half of the binding sites on the other are occupied at equilibrium, for simple one-to-one binding) in experiment [2] is 200 pM; in experiment [3], 1580 pM; in experiment [4], 2040 pM; in experiment [8], 1580 to 2040 pM. The koff (commonly a measure of how fast the partners let go of each other) in experiment [3] worked out at 0.000553 s⁻¹; in experiment [4], 0.000658 s⁻¹; in [9], 0.000553 s⁻¹. The on-rate (kon) (commonly the rate constant with which the complex forms) in [3] turned out to be 356000 M⁻¹ s⁻¹; in experiment [4], 323000 M⁻¹ s⁻¹; in experiment [9] it was 356000 M⁻¹ s⁻¹. In addition, the EC50 (read off the curve) (usually the concentration that produces a half-maximal response) in [5] was approximately 300 pM. The binding result in experiment [6] and in [7] was “no binding (tested: about 2e-7 M)” in each case.
